For 1 molecule, binding result and Kd results are on record in patent publication US20150191530A1 (POMONA RICERCA S R L, published 2015).

Experiment [1] concerns the target T1, recombinant BKV VP1 protein (Abcam ab74567) (BK virus, UniProt P03088 1-362).
T1 sequence: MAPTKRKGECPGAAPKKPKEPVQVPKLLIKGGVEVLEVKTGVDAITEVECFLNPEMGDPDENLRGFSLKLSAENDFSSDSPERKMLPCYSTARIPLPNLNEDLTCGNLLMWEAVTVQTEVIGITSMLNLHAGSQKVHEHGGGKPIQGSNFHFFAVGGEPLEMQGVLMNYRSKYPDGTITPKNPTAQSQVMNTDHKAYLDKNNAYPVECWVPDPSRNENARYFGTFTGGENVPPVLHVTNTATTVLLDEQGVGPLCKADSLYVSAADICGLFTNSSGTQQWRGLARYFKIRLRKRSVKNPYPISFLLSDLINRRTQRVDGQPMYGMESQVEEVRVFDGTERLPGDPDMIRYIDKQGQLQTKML
As to the kind of experiment: ELISA on recombinant JCV VP1 and recombinant BKV VP1. In general terms: ELISA stands for enzyme-linked immunosorbent assay.

The next experiment deals with T2, bovine serum albumin (bovine, UniProt P02769 25-607).
T2 construct: also called BSA
T2 sequence (P02769 25-607 limits assumed): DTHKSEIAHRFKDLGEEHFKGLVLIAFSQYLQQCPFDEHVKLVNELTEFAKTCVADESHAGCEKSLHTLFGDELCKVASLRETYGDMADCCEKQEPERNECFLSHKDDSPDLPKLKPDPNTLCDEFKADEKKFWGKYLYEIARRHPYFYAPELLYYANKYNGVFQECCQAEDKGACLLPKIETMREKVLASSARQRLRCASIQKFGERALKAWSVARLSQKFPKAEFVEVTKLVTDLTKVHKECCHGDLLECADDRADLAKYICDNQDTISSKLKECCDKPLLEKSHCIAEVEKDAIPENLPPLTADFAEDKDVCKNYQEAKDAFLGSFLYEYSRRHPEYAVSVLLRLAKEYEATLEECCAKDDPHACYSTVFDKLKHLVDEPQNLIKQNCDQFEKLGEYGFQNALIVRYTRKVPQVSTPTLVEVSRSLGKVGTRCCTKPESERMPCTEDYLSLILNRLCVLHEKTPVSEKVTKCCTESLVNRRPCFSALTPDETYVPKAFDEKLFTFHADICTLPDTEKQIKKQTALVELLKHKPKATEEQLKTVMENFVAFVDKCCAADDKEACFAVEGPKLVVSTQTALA
The experiment is described as follows: ELISA with crude Fab preparations.

The target in experiment [2] is T3, recombinant JCV VP1 protein (Mad1 strain, Abcam ab74569) (JC virus, Mad1 strain, UniProt P03089 1-354).
T3 construct: also called recombinant VP1 from Mad1 strain; VP1/JCV
T3 sequence (P03089 whole entry): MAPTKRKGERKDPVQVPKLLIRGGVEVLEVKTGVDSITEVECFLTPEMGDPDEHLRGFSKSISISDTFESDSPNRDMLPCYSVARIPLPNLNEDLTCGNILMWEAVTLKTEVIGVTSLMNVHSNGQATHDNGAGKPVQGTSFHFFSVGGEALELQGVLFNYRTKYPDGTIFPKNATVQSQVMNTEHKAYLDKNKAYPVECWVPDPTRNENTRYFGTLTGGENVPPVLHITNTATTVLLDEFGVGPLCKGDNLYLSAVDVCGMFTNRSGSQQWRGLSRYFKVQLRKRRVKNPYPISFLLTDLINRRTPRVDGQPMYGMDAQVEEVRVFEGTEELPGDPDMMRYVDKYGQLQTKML
As to the kind of experiment: method not stated.

B1: GRE1 human anti-JCV VP1 monoclonal antibody (Fab, V domains shown)
VH: WGPGLVKPSQSLSLTCAVSGASVSSGINYWSWIRLYPGKGLEWIGYVYSSGTTYYNPSLKSRVSISLDTSKNQFSLNLRSVTAADTAVYYCARDRGDSSGSSYYKYYMDVWGKGTTVTVSS
VL: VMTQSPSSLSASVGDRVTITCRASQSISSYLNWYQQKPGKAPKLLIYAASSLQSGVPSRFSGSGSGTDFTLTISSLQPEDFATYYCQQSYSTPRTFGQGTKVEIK
notes: also called IgG GRE; JCV-GRE1
A word on the Kd: it is the equilibrium constant for the complex coming apart. Regarding B1, the binding result (in experiment [1]; with bovine serum albumin) was “no binding” throughout. In experiment [2], the Kd was around 1 nM.
